For one molecule, Relative Light Unit (rlu) results are on record in patent publication US20210347914A1.

Test [1] concerns the target GFAP purified from human brain (human) (UniProt P14136). In words: chemiluminescent sandwich ELISA; GFAP-2 capture, HRP-GFAP-6 detection; GFAP standard 20 pg/ml. In general terms: ELISA stands for enzyme-linked immunosorbent assay.
The target is the same in test [2]. In words: chemiluminescent sandwich ELISA; GFAP-2 capture, HRP-GFAP-6 detection; GFAP standard 10 pg/ml.
Test [3] shares this target. The experiment in a line: chemiluminescent sandwich ELISA; GFAP-2 capture, HRP-GFAP-6 detection; GFAP standard 160 pg/ml.
Test [4] shares this target. In words: chemiluminescent sandwich ELISA; GFAP-2 capture, HRP-GFAP-6 detection; GFAP standard 320 pg/ml.
For test [5] the target is unchanged. In words: chemiluminescent sandwich ELISA; GFAP-2 capture, HRP-GFAP-6 detection; GFAP standard 640 pg/ml.
The target is the same in test [6]. The experiment in a line: chemiluminescent sandwich ELISA; GFAP-2 capture, HRP-GFAP-6 detection; GFAP standard 80 pg/ml.
For test [7] the target is unchanged. In words: chemiluminescent sandwich ELISA; GFAP-2 capture, HRP-GFAP-6 detection; GFAP standard 40 pg/ml.

GFAP purified from human brain (human), sequence (P14136 whole entry): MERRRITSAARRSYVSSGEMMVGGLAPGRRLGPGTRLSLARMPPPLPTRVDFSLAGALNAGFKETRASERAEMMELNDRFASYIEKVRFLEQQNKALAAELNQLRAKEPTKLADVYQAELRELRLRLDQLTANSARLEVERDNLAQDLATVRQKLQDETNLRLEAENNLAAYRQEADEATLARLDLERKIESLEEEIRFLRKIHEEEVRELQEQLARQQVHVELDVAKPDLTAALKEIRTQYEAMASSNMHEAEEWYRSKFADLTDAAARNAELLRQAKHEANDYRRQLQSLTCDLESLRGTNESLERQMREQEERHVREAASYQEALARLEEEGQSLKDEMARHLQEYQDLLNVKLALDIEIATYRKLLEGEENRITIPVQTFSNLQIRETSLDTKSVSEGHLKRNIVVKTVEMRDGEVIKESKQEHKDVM

B1: GFAP-6 (antibody, V domains shown)
VH: EVQLQQSGAEFVKPGASVKLSCTASGFNIKDTDMHWVRQRPEQGLESIGLIDPAIGNTKYDPKFQGKATITADTSSNAAYLQLSSLTSEDTAVYYCARSDRYLAWFAYWGQGTLVTVSA
VL: DIVMTQSPATLSVTPGDRVSLSCRASQSISDFLHWYQQKSHGSPRLLIKYSSQSISGIPSRFSGSGSGSDFTLSINSVEPEDVGVYYCQNGHTFPYTFGGGTKLEIK
Consider B1, for which the Relative Light Unit (rlu) in test [1] was determined as 7420 rlu; in test [2] it was 3640 rlu; in test [3], 208000 rlu; in test [4], 487000 rlu; in test [5] it was 1.12e+06 rlu; in test [6] it was 72700 rlu. The molecule also displayed a Relative Light Unit (rlu) in test [7] of 22700 rlu.
